Laboratory results taken from patent US20100098706A1.

Molecular target: human CD16 receptor (FcgammaRIIIa) (human) (UniProt P08637)
Test: flow cytometry on NK cells; competition with 3G8-PE; antibody at 50 µg/ml

human CD16 receptor (FcgammaRIIIa) (human), sequence (P08637 17-254): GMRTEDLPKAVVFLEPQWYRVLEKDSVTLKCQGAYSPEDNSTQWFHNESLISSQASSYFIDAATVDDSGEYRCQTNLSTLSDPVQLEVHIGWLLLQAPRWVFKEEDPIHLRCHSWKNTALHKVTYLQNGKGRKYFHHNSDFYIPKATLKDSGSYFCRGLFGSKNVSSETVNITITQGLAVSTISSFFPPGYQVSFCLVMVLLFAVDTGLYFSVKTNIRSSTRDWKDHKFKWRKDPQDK

binding percentage (100% = total inhibition of 3G8 binding): 18.5%
Substance: Rituxan® (antibody)
